{"source": "paper PMC3168688", "about": "(American journal of medical genetics. Part B, …, 2011)", "binders": {"B1": {"name": "Flag-tagged calcineurin homologous protein (CHP) (natural protein, rat, UniProt P61023 1-195, looked up)", "chain": "MGSRASTLLRDEELEEIKKETGFSHSQITRLYSRFTSLDKGENGTLSREDFQRIPELAINPLGDRIINAFFSEGEDQVNFRGFMRTLAHFRPIEDNEKSKDVNGPEPLNSRSNKLHFAFRLYDLDKDDKISRDELLQVLRMMVGVNISDEQLGSIADRTIQEADQDGDSAISFTEFVKVLEKVDVEQKMSIRFLH"}}, "biological_target": "T1, c-Myc-tagged SLC9A9 C-terminal with both mutations (V512G and K534R) (rat, UniProt D4A7H1 494-644, V512G | K534R)", "T1 sequence (looked up)": "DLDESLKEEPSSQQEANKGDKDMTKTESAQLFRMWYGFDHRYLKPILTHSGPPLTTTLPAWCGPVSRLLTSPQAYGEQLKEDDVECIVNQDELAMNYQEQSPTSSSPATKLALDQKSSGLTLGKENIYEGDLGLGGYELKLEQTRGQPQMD", "assay": "co-IP", "data": [{"binder": "B1", "values": [{"measurement": "fold change of CHP co-precipitated against wild-type SLC9A9 C-terminal", "value": "~2", "unit": "fold"}]}]}
